Experimental data reported in patent US20230001009A1, “NANOPARTICLE COMPOSITIONS AND METHODS OF USE” (The Trustees of the University of Pennsylvania, priority 2019, published 2023).

What was measured:
[1] = system: neutrophils in LPS-inflamed lungs; conditions: mouse, in vivo, iv
Description: Mice received IV LPS as a model of sepsis/ARDS and were injected five hours later with liposomes (approx. 5 mg/kg). Lung uptake provides a measure of tropism to marginated neutrophils. D5=5 DBCO per protein (IgG) on the tag. D5=5 DBCO per IgG on the tag. D20=20 per IgG on the tag. 25% chol=25% (moles cholesterol/total moles of lipid) of the lipids in liposomes was cholesterol. 25% cholesterol=25% (moles cholesterol/total moles of lipid) of the lipids in liposomes was cholesterol.
Radiolabeled clone 1A8 anti-Ly6G antibody was administered to determine the location and concentration of neutrophils in naïve mice and mice exposed to intravenous (IV) lipopolysaccharides (LPS) (FIG. 1A).
Previous work has traced the neutrophil response to bacteria in the lungs, determining that pulmonary neutrophils pursue and engulf active bacteria following either intravenous infection or infection of the airspace in the lungs. We injected heat-inactivated, oxidized, and fixed E. coli in naïve and IV-LPS-injured mice.
Neither nanoparticle was functionalized with antibodies or other affinity tags. The protein component of each particle was labeled with ^125I for tracing in biodistributions assessed 30 minutes after IV administration of nanoparticles.
Variants of LDNG structure, crosslinked protein NP structure, and NP structure based on charged protein interactions were traced in naïve control and IV-LPS-injured mice. As examples of highly crystalline protein-based NPs based on site-specific protein interactions (rather than site-indiscriminate interactions leading to crosslinker, gelation, or charge-based protein NPs), we also traced viruses in naïve and LPS-treated mice. Adding in liposomes and polystyrene NPs as example nanostructures not based on protein, we undertook a study to evaluate how aspects of NP structure including size, composition, surface chemistry, and crystallinity impact NP affinity for LPS-injured lungs.

[2] = system: ex vivo human lungs
Source text: Finally, fluorescent or ^125I-labeled LDNGs were infused via arterial catheter into ex vivo human lungs excluded from organ donation due to conditions (including edema and injury) resembling those found in ARDS patients. Immediately prior to LDNG administration, tissue dye was infused via the same catheter to stain regions of the lungs directly perfused by the chosen branch of the pulmonary artery (FIG. 7C). After infusion of LDNGs, phosphate buffered saline infusion rinsed away unbound particles. Perfused regions of the lungs were dissected and divided into ˜1 g segments, divided into regions deemed to have high, medium, or low levels of staining with tissue dye. For lungs receiving fluorescent LDNGs, well-perfused and poorly-perfused regions were selected for sectioning and fluorescent imaging. Fluorescent signal from LDNGs was clearly detectable in sections of well-perfused tissue, but not poorly-perfused tissue (FIG. 7D). In experiments with ^125I-labeled LDNGs, ^131I-labeled ferritin was concurrently infused (i.e. a mix of ferritin and LDNGs was infused) as an internal control particle shown to have no affinity for injured mouse lungs. For LDNGs and ferritin infused into the same lungs via the same branch of the pulmonary artery, LDNGs retained in the lungs at 52.15% initial dose and ferritin retained at 9.27% initial dose (FIG. 7E). […]

Substance: transferrin: isolated radiolabeled protein
- Lung uptake, percent of initial dose [1]: 1.45 % initial dose

Substance: bovine albumin: isolated radiolabeled protein
- Lung uptake, percent of initial dose [1]: 1.38 % initial dose

Substance: lysozyme: isolated radiolabeled protein
- Lung uptake, percent of initial dose [1]: 1.34 % initial dose

Substance: ferritin
- Retained in the lungs [2]: 9.27 % initial dose
- LPS:naïve lung uptake ratio [1]: 1.15
- Lung uptake, percent of initial dose [1]: 0.68 % initial dose
